Entries after “also recorded” stand apart in the source; their conditions may differ.

The record followed here is PMC12711160 (Chemmedchem, 2025).

For data set [1], the target named is human neuropeptide Y (NPY) receptor type 1 (hY1R), in stably transfected COS-7 cells (human) (UniProt P25929).
For data set [2], the target named is human neuropeptide Y receptor type 4 (hY4R), in stably transfected COS-7 cells (human) (UniProt P50391).
The test system of data set [3] is ERα. The data set is described as follows: Luciferase reporter gene assay, control HEK293 cells expressing only ERα-pEGFP and TATA-luciferase (w/o hY1R). Conditions: read-out: EC50 luciferase reporter gene assay, w/o hY1R; HEK293 cells expressing ERα and ERE-luciferase but not hY1R; stimulation 24 h; normalized to 4-OHT; n. d. = could not be determined. On the technique in general: In a reporter assay the amount or activity of a reporter protein is the signal.
Protocol: Values were normalized to the native ligands (NPY for hY1R and hY2R, hPP for hY4R). Data points represent mean ± SEM from n ≥ 2 independent experiments with technical triplicates. Luciferase reporter gene assay in transiently transfected HEK293‐cells expressing hY1R‐eYFP. […] Data points represent mean ± SEM from n ≥ 3 independent experiments with technical triplicates. Calculated pEC50‐ and Emax‐values are shown as bar graphs.
HEK293‐cells were transiently transfected with 0.083 µg/well hY1R‐eYFP‐pVitro2, pEGFP‐c1‐ERα (kindly provided by Michael Mancini (Addgene plasmid #28230; http://n2t.net/addgene:28230; RRID:Addgene_28230))^[ [58] ^] and 3xERE‐Tata‐Luc (kindly provided by Donald McDonnell (Addgene plasmid #11354; http://n2t.net/addgene:11354; RRID:Addgene_11354))^[ [59] ^] parallel to cell seeding. For a control experiment without hY1R‐expression, pEGFP‐N1 together with pEGFP‐c1‐ERα and 3xERETata‐Luc was transfected instead. Lipofectamine2000 (Invitrogen) was used as a transfection reagent according to the manufacturer's protocol. […] Luciferase activity was detected with ONE Glo Luciferase Assay System (Promega) following the manufacturer's specifications. Each concentration was measured at least in technical triplicates and relative luminescence units (RLU) were obtained by normalization to free 4‐OH‐Tmx. Concentration response curves were calculated with Graph Pad Prism 9.

For data set [4], the system named is ERα. In words: Luciferase reporter gene assay, HEK293 cells expressing hY1R-eYFP, ERα-pEGFP and 3xERE-TATA-luciferase. The class given is cell-based. The following applies: ERα and ERE-luciferase, stimulation 24 h, normalized to 4-OHT, at least three independent experiments, n. d. = could not be determined. The text has this:
B) ERα‐pEGFP and TATA‐luciferase.
Therefore, we tested HEK293 cells that transiently express hY1R, ERα, and an ERα activity‐dependent luciferase. ERα forms dimers and translocates into the nucleus upon activation, where it binds to the estrogen response element (ERE) upstream of the luciferase gene and induces luciferase expression.

Data set [5] deals with human neuropeptide Y (NPY) receptor type 1 (hY1R), in stably transfected COS-7 cells (human) (UniProt P25929). This is another data set of the same source.
Data set [6] has as its target human neuropeptide Y receptor type 4 (hY4R), in stably transfected COS-7 cells (human) (UniProt P50391). The source holds these as a separate data set.
Data set [7] in a line: luciferase reporter gene assay medium (DMEM/Ham‘s w/o phenolred, w/o FBS, pH = 7.41).
A short description of data set [8]: DMEM/Ham‘s with 15% FBS, pH = 8.01.
The nature of data set [9]: DMEM/Ham‘s w/o FBS, pH = 7.04.
Data set [10] addresses human neuropeptide Y receptor type 5 (hY5R), in stably transfected COS-7 cells (human) (UniProt Q15761).
The target is the same in data set [11]. The source holds these as a separate data set.
The nature of data set [12]: human blood plasma/DPBS (Biowest; 1:1, v/v). The following applies: 37 °C, up to 72 h.
In another data set the target is hY4R‐eYFP (human) (UniProt P50391).
hY4R‐eYFP (human), sequence (P50391 whole entry): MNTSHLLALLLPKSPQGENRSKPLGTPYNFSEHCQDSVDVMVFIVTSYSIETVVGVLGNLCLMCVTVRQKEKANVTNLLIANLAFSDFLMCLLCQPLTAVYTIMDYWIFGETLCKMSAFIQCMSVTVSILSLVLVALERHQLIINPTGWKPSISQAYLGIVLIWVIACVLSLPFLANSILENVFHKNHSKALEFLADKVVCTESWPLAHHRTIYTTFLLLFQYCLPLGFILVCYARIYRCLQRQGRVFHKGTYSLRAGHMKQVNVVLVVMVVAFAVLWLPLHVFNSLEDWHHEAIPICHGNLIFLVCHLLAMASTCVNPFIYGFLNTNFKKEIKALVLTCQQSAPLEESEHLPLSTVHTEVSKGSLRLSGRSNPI

human neuropeptide Y receptor type 4 (hY4R), in stably transfected COS-7 cells (human), sequence (P50391 whole entry): as above
human neuropeptide Y (NPY) receptor type 1 (hY1R), in stably transfected COS-7 cells (human), sequence (P25929 whole entry): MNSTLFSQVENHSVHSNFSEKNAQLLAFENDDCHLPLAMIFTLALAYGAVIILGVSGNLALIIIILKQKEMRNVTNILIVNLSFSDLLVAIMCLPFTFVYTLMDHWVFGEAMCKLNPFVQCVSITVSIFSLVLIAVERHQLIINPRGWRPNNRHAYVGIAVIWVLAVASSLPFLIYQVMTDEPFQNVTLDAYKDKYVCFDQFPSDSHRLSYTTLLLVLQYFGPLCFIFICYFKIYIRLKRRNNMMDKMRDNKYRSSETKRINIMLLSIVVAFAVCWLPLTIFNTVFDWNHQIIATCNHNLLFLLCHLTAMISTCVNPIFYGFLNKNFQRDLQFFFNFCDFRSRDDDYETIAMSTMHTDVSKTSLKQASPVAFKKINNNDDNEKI
human neuropeptide Y receptor type 5 (hY5R), in stably transfected COS-7 cells (human), sequence (Q15761 whole entry): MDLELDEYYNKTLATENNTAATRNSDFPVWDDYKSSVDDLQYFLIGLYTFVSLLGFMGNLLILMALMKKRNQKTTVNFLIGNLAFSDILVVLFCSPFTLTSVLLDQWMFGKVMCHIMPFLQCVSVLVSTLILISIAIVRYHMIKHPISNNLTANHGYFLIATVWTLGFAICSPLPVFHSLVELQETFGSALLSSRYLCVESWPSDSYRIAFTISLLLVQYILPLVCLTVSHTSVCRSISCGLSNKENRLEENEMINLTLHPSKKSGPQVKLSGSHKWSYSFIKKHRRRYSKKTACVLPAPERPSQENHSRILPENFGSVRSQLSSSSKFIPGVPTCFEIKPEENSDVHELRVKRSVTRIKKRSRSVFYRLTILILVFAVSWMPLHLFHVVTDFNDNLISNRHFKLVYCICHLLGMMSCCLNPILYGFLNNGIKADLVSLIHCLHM

Take “4‐OHT conjugate 1 of [F^7,P^34]‐pNPY (w/o linker) (peptide)”: the calcium flux assay (receptor activation), EC50 in [1] worked out at 0.1 nM; in data set [2], 0.6 nM.

As for `CC/C(=C(\c1ccc(O)cc1)c1ccc(OCCN(C)C)cc1)c1ccccc1` [4‐OHT, 4‐hydroxytamoxifen], the EC50 in the data set with ERα [3] is 5.8 nM; in the data set with ERα [4], 9.4 nM.

For the molecule [F^7,P^34]‐pNPY (peptide), the IP1 accumulation assay (G-protein activation), EC50 in data set [5] stood at 1.2 nM; in [6], 0.4 nM. The calcium flux assay (receptor activation), EC50 in data set [1] is 0.1 nM; in [2], 0.3 nM.

On to [K4(Diamine-4-OHT),F7,P34]-pNPY, for which the fragment found result in data set [7] is given as “peptide without 4-OHT”; in the data set “DPBS, pH = 7.4” it was “peptide without 4-OHT”; in [8] it was “peptide without 4-OHT”; in [9] it was “peptide without 4-OHT”.

Molecule “porcine neuropeptide Y (pNPY) (from UniProt P01304 10-45)” had an IP1 accumulation assay (G-protein activation), EC50 in [10] of 3.4 nM. In addition, in data set [11], the calcium flux assay (receptor activation), EC50 was found to be 7.2 nM.

Take “YPSK(GFL-G(13C2,15N)- COCH2-4-OHT)PDFPGEDAPA(13C3,15N)EDLARYYSALRHYINL(13C6,15N)ITRPRY-NH2”: the cleaved bond result in data set [12] is recorded as “Y1-P2; also recorded: P2-S3; also recorded: Y21-S22; also recorded: L24-R25; also recorded: L30-I31; also recorded: R35-Y36”.

Consider “YPSK(COCH2-4-OHT)PDFPGEDAPAEDLK(Tam)RYYSALRHYINLITRPRY-NH2”, for which the cleaved bond result in [12] is “R35-Y36, minor”.

Molecule APLEPVYPGDNATPEQMAQYAADLRRYINMLTRPRY [human pancreatic polypeptide (hPP)] registered an arrestin-3 recruitment to the receptor (NanoBRET), EC50 with hY4R‐eYFP (human) of 3.9 nM. This molecule also gave an IP1 accumulation assay (G-protein activation), EC50 in data set [6] of 0.2 nM. The calcium flux assay (receptor activation), EC50 in data set [2] worked out at 0.1 nM.
